Assay results reported in patent publication US20250051788A1.

Key:
Assay in all cases: anti-FLAG IP-MS vs mock IP
[1] = target: Thioredoxin superfamily protein (ATHM2) (AT4G03520) (Arabidopsis thaliana) (UniProt Q9SEU8)
[2] = target: Nodulin-related protein 1 (NRP1) (AT2G03440) (Arabidopsis thaliana) (UniProt Q9ZQ80)
[3] = target: thioglucoside glucohydrolase 1 (TGG1) (AT5G26000) (Arabidopsis thaliana) (UniProt P37702)
[4] = target: Phosphoserine aminotransferase (PSAT) (AT4G35630) (Arabidopsis thaliana) (UniProt Q96255)
UniProt Q96255, sequence (Q96255 52-430): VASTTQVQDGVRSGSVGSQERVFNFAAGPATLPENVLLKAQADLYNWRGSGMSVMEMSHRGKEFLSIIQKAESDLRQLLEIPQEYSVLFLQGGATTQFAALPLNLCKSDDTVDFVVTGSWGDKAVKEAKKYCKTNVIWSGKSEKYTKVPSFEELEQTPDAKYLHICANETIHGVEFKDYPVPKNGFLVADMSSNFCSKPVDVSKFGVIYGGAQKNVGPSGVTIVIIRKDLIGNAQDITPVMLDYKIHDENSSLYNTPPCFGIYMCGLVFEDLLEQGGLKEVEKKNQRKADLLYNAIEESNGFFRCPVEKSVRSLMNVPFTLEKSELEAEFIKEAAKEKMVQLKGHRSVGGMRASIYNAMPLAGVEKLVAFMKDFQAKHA

UniProt P37702, sequence (P37702 20-541 limits assumed): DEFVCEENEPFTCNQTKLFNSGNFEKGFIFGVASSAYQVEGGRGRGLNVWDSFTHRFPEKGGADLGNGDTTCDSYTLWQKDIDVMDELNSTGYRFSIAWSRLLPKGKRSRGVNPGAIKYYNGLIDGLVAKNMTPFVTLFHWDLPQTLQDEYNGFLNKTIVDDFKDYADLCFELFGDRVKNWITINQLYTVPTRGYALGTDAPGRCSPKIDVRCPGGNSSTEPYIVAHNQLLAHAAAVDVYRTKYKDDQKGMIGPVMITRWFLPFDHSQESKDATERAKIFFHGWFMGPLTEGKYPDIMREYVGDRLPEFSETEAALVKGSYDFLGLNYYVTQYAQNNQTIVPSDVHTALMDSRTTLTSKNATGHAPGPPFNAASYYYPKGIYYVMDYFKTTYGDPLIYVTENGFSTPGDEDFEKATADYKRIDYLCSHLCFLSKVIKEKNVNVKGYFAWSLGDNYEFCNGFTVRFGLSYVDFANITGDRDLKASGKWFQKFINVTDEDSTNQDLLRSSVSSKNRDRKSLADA
UniProt Q9ZQ80, sequence (Q9ZQ80 whole entry): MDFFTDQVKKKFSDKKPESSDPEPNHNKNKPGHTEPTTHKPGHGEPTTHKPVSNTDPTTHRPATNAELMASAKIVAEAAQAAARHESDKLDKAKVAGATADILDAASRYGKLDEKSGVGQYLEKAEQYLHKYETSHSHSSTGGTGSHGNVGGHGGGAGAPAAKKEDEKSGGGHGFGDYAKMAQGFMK
UniProt Q9SEU8, sequence (Q9SEU8 73-186): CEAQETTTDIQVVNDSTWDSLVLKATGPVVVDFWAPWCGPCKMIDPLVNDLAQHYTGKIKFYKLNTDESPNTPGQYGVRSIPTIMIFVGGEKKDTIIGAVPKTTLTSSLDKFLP

Log2(FC) Replicate 1/ Mock [1]: 0.585 log2
Log2(FC) Replicate 2/ Mock [1]: 2.17 log2
Log2(FC) Replicate 3/ Mock [1]: 3.39 log2
Log2(FC) Replicate 4/ Mock [1]: 3.09 log2
Log2(FC) Replicate 1/ Mock [2]: 2 log2
Log2(FC) Replicate 2/ Mock [2]: 2.5 log2
Log2(FC) Replicate 3/ Mock [2]: 1.74 log2
Log2(FC) Replicate 4/ Mock [2]: 1.87 log2
Log2(FC) Replicate 1/ Mock [3]: -0.214 log2
Log2(FC) Replicate 2/ Mock [3]: 0.697 log2
Log2(FC) Replicate 3/ Mock [3]: 1.95 log2
Log2(FC) Replicate 4/ Mock [3]: 1.84 log2
Log2(FC) Replicate 1/ Mock [4]: 3.09 log2
Log2(FC) Replicate 2/ Mock [4]: 3.17 log2
Log2(FC) Replicate 3/ Mock [4]: 1.81 log2
Log2(FC) Replicate 4/ Mock [4]: 1.81 log2
Substance: FLAG-BD (FLAG-tagged minimal Arabidopsis BRN1 protein that contains only the first two RRM domains) (from UniProt Q8LFS6 2-199)
